Results reported in patent US9694061B2, “Fully human antibodies to high molecular weight-melanoma associated antigen and uses thereof” (University of Pittsburgh—Of the Commonwealth System of …, priority 2008, dated 2017).

Legend:
[1] = target: T1, HMW-MAA (Homo sapiens, UniProt Q6UVK1); assay: Competition assay to map the antigenic determinant on SK-MEL-28 cells; type: binding; set-up: from tissue; host or cells: human nevi, primary and metastatic melanoma lesions (frozen sections); settings: biotinylated mAb VF1-TP34, competitor PP scFv C21
Procedure: FIG. 5. Spatial proximity of the determinant defined by scFv C21 and of that defined by mouse mAb VF1-TP34 on HMW-MAA^+ melanoma cells SK-MEL-28. Varying concentrations of mAb VF1-TP34 (-●-) (left panel) were mixed with biotinylated scFv C21 (0.25 μg/well). The mixture was then transferred to wells containing HMW-MAA^+ cells and incubated for 1 h at 4° C. Binding of antibodies was detected using SA-HRP. Results are expressed as % inhibition. Likewise, varying amounts of PP scFv C21 (-▴-) (right panel) were mixed with biotinylated mAb VF1-TP34 (40 ng/well). The mixture was then transferred to wells containing HMW-MAA^+ cells and incubated for 1 h at 4° C. […]
The ELISA to test the reactivity of soluble scFv antibodies with synthetic peptides and melanoma cells and of mouse immune sera with melanoma cells and with peptides was performed as described (Desai et al., Cancer Res 58:2417-2425, 1998; Desai et al., J Immunol 165:3275-3283, 2000; Matsui et al., J Immunol 139:2088-2095, 1987). Results are expressed as absorbance of optical density (O.D.) at 450 nm. The competition assay to map the antigenic determinant recognized by scFv C21 was performed by mixing biotinylated scFv C21 (0.25 μg/well) with two-fold dilutions of mouse mAb or scFv PP or by mixing biotinylated mAb (at an optimal amount giving absorbance, measured at 450 nm of 1.0) with two fold dilutions of scFv PP. […]

[2] = target: T1, HMW-MAA; assay: Flow cytometry of M14/HMW-MAA transfectants and parental M14 cells stained with scFv; type: binding; set-up: from tissue; host or cells: human nevi, primary and metastatic melanoma lesions (frozen sections)
Procedure: FIG. 2. Flow cytometry analysis of HMW-MAA^+ M14#5/HMW-MAA melanoma cells stained with scFv C21. M14#5/HMW-MAA transfectants and parental HMW-MAA^− M14#5 cells were incubated on ice with PP scFv C21 and mAb 9E10 (empty histogram) and control PP scFv 119 and mAb 9E10 (grey histogram) (top panel), with HMW-MAA-specific mouse mAb 763.74 (0.5 μg) (empty histogram) and control mAb MK2-23 (grey histogram) (middle panel) and with HLA class I antigen-specific mAb TP25.99 (empty histogram) and control mAb MK2-23 (grey histogram) (bottom panel). Binding of antibodies was detected using RPE-labeled F(ab′)2 fragments of goat anti-mouse Ig antibodies. Cells were analyzed with a FACScan™ flow cytometer. Results are expressed as fluorescence intensity.
Flow cytometry analysis of melanoma cells stained with scFv antibodies or antibodies in immune sera was performed as described (Wang et al., J Immunol Methods 294:23-35, 2004, herein incorporated by reference). […] Following two washes, cells were fixed in 2% formaldehyde and analyzed with a FACScan™ flow cytometer (BD Biosciences, San Jose, Calif.). A total of 10,000 cells were counted using a forward and side scatter gate to eliminate aggregates and debris for each sample. Results are expressed as relative fluorescence intensity.

[3] = tested on: HMW-MAA; assay: ELISA of soluble scFv antibodies with cell lines; type: binding, human; settings: soluble scFv clones isolated by panning with Colo38 cells
Procedure: (§1) FIG. 1. Selective reactivity in ELISA of soluble scFv C21 with HMW-MAA^+ human cell lines. […] Binding of scFv fragments was detected using SA-HRP. Results are expressed as absorbance at 490 nm. Human anti-anti-id scFv #119 ( ? ) was used as a specificity control.
(§2) The ELISA to test the reactivity of soluble scFv antibodies with synthetic peptides and melanoma cells and of mouse immune sera with melanoma cells and with peptides was performed as described (Desai et al., Cancer Res 58:2417-2425, 1998; Desai et al., J Immunol 165:3275-3283, 2000; Matsui et al., J Immunol 139:2088-2095, 1987). Results are expressed as absorbance of optical density (O.D.) at 450 nm. The competition assay to map the antigenic determinant recognized by scFv C21 was performed by mixing biotinylated scFv C21 (0.25 μg/well) with two-fold dilutions of mouse mAb or scFv PP or by mixing biotinylated mAb (at an optimal amount giving absorbance, measured at 450 nm of 1.0) with two fold dilutions of scFv PP. […] Binding of biotinylated scFv antibodies and biotinylated mAb to target cells was measured by sequential incubation with SA-HRP and substrate as described (Noronha et al., J Immunol 161:2968-2976, 1998). The results are expressed as percent inhibition by mAb, scFv or peptide (competitor or inhibitor) of scFv or mAb binding to HMW-MAA^+ cells. […]

[4] = target: T1, HMW-MAA; assay: ELISA of soluble scFv antibodies with cell lines; type: binding; set-up: Cultured human melanoma cells Colo38, FO-1, SK-MEL-28 and Melur, all of which express HMW-MAA; endogenous in cells; host or cells: Colo38, FO-1, SK-MEL-28, Melur human melanoma cells
Procedure: as §1, §2

T1 sequence (Q6UVK1 30-2322): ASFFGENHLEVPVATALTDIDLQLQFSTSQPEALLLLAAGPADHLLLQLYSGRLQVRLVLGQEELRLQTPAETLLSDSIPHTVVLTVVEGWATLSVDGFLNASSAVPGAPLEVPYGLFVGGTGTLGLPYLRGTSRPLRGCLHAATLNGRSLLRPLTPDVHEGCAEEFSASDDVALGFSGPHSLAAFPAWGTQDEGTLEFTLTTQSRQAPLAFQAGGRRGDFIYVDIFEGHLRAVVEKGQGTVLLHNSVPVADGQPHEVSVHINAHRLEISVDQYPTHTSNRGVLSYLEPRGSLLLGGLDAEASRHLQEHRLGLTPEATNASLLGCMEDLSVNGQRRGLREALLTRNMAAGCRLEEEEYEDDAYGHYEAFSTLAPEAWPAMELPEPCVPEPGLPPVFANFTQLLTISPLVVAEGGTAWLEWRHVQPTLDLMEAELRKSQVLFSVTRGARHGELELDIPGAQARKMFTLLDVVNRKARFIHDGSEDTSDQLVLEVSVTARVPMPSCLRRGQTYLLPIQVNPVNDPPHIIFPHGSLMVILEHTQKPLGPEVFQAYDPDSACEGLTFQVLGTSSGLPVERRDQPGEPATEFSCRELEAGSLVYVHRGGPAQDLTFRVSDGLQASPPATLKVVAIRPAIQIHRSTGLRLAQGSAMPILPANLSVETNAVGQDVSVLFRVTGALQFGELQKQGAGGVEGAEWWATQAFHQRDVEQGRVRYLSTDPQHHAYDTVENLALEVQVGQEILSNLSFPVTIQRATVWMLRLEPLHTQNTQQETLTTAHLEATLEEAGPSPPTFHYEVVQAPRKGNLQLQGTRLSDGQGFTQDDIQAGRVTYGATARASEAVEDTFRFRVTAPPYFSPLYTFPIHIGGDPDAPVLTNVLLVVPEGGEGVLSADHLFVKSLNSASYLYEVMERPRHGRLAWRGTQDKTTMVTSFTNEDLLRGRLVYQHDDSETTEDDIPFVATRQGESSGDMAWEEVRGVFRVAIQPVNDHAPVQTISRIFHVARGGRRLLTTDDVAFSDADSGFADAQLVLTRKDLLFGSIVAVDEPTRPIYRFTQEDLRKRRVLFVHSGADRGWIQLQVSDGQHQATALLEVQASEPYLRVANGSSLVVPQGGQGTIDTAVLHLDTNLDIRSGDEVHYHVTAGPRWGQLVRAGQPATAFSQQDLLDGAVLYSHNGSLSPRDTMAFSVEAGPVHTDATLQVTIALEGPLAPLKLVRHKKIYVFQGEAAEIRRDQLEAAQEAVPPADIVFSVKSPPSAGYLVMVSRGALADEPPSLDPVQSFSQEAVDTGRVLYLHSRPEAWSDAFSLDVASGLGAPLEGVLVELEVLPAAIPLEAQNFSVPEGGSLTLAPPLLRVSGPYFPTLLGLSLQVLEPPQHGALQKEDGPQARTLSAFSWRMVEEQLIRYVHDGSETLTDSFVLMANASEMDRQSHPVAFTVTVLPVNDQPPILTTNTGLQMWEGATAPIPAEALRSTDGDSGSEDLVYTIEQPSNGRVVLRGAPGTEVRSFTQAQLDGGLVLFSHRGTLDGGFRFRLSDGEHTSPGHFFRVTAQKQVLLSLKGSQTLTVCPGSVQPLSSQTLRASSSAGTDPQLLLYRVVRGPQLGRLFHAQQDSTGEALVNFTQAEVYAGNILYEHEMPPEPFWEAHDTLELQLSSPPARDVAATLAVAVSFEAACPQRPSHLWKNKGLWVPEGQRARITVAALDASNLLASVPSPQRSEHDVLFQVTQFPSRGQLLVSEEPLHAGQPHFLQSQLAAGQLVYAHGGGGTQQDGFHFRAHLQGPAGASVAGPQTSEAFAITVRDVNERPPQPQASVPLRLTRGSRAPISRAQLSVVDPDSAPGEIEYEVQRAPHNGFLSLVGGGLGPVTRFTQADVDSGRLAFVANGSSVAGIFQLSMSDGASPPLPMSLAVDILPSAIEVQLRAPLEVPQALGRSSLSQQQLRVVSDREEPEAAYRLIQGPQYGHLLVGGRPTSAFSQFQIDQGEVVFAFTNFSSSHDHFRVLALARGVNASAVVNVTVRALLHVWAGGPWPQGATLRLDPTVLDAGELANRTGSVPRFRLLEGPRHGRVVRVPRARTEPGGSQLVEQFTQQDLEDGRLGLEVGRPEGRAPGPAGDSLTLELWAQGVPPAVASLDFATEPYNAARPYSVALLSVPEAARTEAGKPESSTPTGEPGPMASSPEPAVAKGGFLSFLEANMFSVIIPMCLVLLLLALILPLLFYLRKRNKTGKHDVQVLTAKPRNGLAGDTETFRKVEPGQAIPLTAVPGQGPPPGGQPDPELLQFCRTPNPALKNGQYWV

B1: scFv C21: HMW-MAA-specific fully human scFv from semi-synthetic phage display library; VH SEQ ID NO: 5, VL SEQ ID NO: 6 (antibody, listed as Homo sapiens, V domains shown)
VH: QVQLVQSGAEVKKPGSSVKVSCKASGGTFSSYAISWVRQAPGQGLEWMGGIIPIFGTANYAQKFQGRVTITADESTSTAYMELSSLRSDDTAVYYCARALDPITFDSWGQGTLVTVSR
VL: SELTQDPAVSVALGQTVRITCQGDSLRSYYASWYQQKPGQAPVLVIYGKNNRPSGIPDRFSGSSSGNTASLTITGAQAEDEADYYCNSRDSSGNHVVFGGGTKLTVLGRS
modifications: scFv linker
Inhibition of binding of mAb VF1-TP34 to SK-MEL-28 cells [1]: partially inhibited each other
Flow cytometry staining of HMW-MAA transfected M14 cells ([2]; M14 cells stably transfected with full length HMW-MAA): stained M14 cells which express HMW-MAA
Flow cytometry staining of parental M14 cells ([2]; parental M14 cells, do not express HMW-MAA): did not stain the parental M14 cells
Reactivity in ELISA with Colo38, FF2376 fibroblasts and T24 bladder carcinoma cells [3]: selective reactivity with Colo38 cells
Reactivity in ELISA with panel of human cell lines with differential HMW-MAA expression and rat neural cell line B49 ([4]; FIG. 1): reacted only with the melanoma cell lines Colo38, FO-1, Melur and SK-MEL-28
Reactivity in ELISA relative to the other selected clones ([4]; clones C3, C21, C29, C30): highest reactivity
